Assay results: ChEMBL document CHEMBL2074064, “Uptake of cyclic dipeptide by PEPT1 in Caco-2 cells: phenolic hydroxyl group of substrate enhances affinity for PEPT1” (J Pharm Pharmacol, 2002)

Experiments:
Assay type in all cases: functional, cell-based
[1] = substrate: O=C1CNC(=O)[C@H](Cc2ccc(O)cc2)N1; assay: (§1) TP_TRANSPORTER: uptake in Caco-2 cells
[2] = substrate: O=C1N[C@@H](Cc2ccc(O)cc2)C(=O)N[C@H]1CO; assay: as §1
[3] = substrate: O=C1CNC(=O)[C@H](Cc2ccccc2)N1; assay: as §1
[4] = substrate: O=C1N[C@@H](Cc2ccccc2)C(=O)N[C@H]1CO; assay: as §1

B1: Solute carrier family 15 member 1 (Homo sapiens), P46059 (protein)
chain: MGMSKSHSFFGYPLSIFFIVVNEFCERFSYYGMRAILILYFTNFISWDDNLSTAIYHTFVALCYLTPILGALIADSWLGKFKTIVSLSIVYTIGQAVTSVSSINDLTDHNHDGTPDSLPVHVVLSLIGLALIALGTGGIKPCVSAFGGDQFEEGQEKQRNRFFSIFYLAINAGSLLSTIITPMLRVQQCGIHSKQACYPLAFGVPAALMAVALIVFVLGSGMYKKFKPQGNIMGKVAKCIGFAIKNRFRHRSKAFPKREHWLDWAKEKYDERLISQIKMVTRVMFLYIPLPMFWALFDQQGSRWTLQATTMSGKIGALEIQPDQMQTVNAILIVIMVPIFDAVLYPLIAKCGFNFTSLKKMAVGMVLASMAFVVAAIVQVEIDKTLPVFPKGNEVQIKVLNIGNNTMNISLPGEMVTLGPMSQTNAFMTFDVNKLTRINISSPGSPVTAVTDDFKQGQRHTLLVWAPNHYQVVKDGLNQKPEKGENGIRFVNTFNELITITMSGKVYANISSYNASTYQFFPSGIKGFTISSTEIPPQCQPNFNTFYLEFGSAYTYIVQRKNDSCPEVKVFEDISANTVNMALQIPQYFLLTCGEVVFSVTGLEFSYSQAPSNMKSVLQAGWLLTVAVGNIIVLIVAGAGQFSKQWAEYILFAALLLVVCVIFAIMARFYTYINPAEIEAQFDEDEKKNRLEKSNPYFMSGANSQKQM
With B1 the Km [1] was 62.9 µM, the Km [2] was 21.9 µM and the Km [3] was 90.9 µM. For the same protein, the Km [4] was 118 µM.
